Reference: paper PMC5193325, “Cytochrome c Negatively Regulates NLRP3 Inflammasomes” (PLoS ONE, 2016)

Target: T1, NLRP3 (NLR family, pyrin domain containing 3), endogenous (human (endogenous in THP-1), UniProt Q96P20 1-1036)
T1 construct: NLRP3, endogenous in PMA-differentiated, LPS-primed THP-1 cells; also called NLPR3; source: endogenous, lysate or cytosolic fraction of LPS-primed THP-1 macrophage cells
Test: co-IP; NLRP3 immunoprecipitated from lysates of LPS-primed THP-1 macrophage cells, stimulated with ATP (5 mM, 1 h) or not; immunoblot for cytochrome c; lysis buffer 20 mM HEPES pH 7.4, 0.5% Triton X-100, 0.5% CHAPS, 10% glycerol; 4°C
Settings: partners not purified

T1 sequence (Q96P20 whole entry, the tested form may be a part): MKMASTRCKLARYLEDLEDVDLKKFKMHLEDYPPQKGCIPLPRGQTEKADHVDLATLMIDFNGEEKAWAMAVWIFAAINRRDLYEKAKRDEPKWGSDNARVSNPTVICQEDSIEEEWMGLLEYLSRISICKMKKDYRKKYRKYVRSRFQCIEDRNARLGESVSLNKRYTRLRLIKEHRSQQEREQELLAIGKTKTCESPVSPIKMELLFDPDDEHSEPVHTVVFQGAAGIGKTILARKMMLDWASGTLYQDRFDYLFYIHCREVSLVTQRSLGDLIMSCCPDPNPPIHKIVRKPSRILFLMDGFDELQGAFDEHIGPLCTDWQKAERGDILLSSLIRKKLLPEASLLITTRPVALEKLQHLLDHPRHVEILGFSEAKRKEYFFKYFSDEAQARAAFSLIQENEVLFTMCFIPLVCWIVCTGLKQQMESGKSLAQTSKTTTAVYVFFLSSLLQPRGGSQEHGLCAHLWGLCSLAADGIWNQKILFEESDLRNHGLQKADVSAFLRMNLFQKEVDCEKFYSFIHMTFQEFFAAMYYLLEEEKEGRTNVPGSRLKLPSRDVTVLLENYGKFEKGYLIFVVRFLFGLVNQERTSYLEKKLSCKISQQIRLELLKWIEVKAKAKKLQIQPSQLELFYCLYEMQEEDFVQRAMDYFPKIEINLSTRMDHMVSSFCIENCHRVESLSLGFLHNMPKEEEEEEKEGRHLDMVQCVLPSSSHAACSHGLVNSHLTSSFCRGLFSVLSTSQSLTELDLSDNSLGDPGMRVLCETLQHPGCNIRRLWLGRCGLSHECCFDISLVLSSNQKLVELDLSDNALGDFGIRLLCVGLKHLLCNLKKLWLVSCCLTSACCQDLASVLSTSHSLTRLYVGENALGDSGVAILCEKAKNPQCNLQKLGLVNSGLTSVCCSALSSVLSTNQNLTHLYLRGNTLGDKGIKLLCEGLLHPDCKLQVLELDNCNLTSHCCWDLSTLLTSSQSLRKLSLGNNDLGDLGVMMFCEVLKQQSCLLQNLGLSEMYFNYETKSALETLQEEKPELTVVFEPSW

B1: cytochrome c, endogenous (natural protein)
chain: not shown
notes: cytochrome c, endogenous in PMA-differentiated, LPS-primed THP-1 cells; source: endogenous, lysate or cytosolic fraction of LPS-primed THP-1 macrophage cells
  fold more cytochrome c co-precipitated with NLRP3 after ATP against no ATP: ~3 fold
